The text below walks through data of patent US20230372551A1, “RADIOLABELED LIGANDS FOR TARGETED PET/SPECT IMAGING AND METHODS OF THEIR USE” (priority 2020, published 2023).

The nature of data set [1]: in vivo. Set-up: species or system BALB/c mice. The settings on record: BALB/c, mouse, total radioactivity. The method, then: (§1) In vivo animal PET imaging and biodistribution. All injections were less than 200 μL with <10% EtOH in sterile PBS. PET images were obtained with the mice under anesthesia in an Inveon PET-CT at 4-144 h p.i. All images were analyzed using 3D Slicer (www.slicer.org). Dissections for ex vivo biodistribution were performed on mice after C02 asphyxiation or cervical dislocation while anesthetized at reported time points. Weight of the syringe prior to injection and after injection was used to determine the mass of injectate. Activity of the syringe prior to injection and after injection was used to determine the percent of injectate administered. The mass injected was corrected by the percent of radioactivity injected. Four to five aliquots (10 μL) were weighed and counted as internal standards for each study. All of the collected organs were counted using an automatic gamma counter (Wizard 3″, PerkinElmer, Waltham, MA). The total injected dose was found as the mass injected dose×fraction radioactivity injected×internal standard average counts/g. The percent injected dose (% ID) was determined as the counts for the tissue×100/total injected dose. The % ID/g was calculated as the % ID/tissue weight. The average and standard deviation of the % ID and % ID/g was determined using normal methods (n-1) for each set of mice.
(§2) 4T1 orthotopic BALB c mouse model. Animal studies were conducted according to MSKCC IACUC-approved animal protocol.
(§3) The 4T1 cells derived from spontaneous breast tumor in a BALB/c mouse (Karmanos Cancer Institute, Detroit, MI) were cultured in Dulbecco's modified Eagle's high glucose media with 10% FCS, 2 mM L-glutamine, penicillin, and streptomycin. The 4T1 cells derived from ATCC (Manassas, VA) were cultured in RPMI-1640 medium modified to contain 2 mM L-glutamine, 10 mM HEPES, 1 mM sodium pyruvate, 4.5 g/L glucose, 1.5 g/L NaHCO3, penicillin, and streptomycin.
(§4) The 4T1 cells described above were removed from the flasks containing the culture, concentrated, and resuspended in minimal media for cell counting. […]

The test system of data set [2] is 4T1 tumors. Briefly: in vivo. As to conditions: mouse. Set-up: species or system BALB/c mice. The method, then: as §1, §2, §3, §4
Data set [3] in a line: in vivo. As to conditions: male, athymic nude, mouse, 200 uCi (1.2 nmol), total radioactivity, ex vivo distribution.
Experimental: All injections were less than 200 μL with <10% EtOH in sterile PBS. […] All images were analyzed using 3D Slicer (www.slicer.org). Dissections for ex vivo biodistribution were performed on mice after C02 asphyxiation or cervical dislocation while anesthetized at reported time points. Weight of the syringe prior to injection and after injection was used to determine the mass of injectate. Activity of the syringe prior to injection and after injection was used to determine the percent of injectate administered. The mass injected was corrected by the percent of radioactivity injected. Four to five aliquots (10 μL) were weighed and counted as internal standards for each study. All of the collected organs were counted using an automatic gamma counter (Wizard 3″, PerkinElmer, Waltham, MA). […] The percent injected dose (% ID) was determined as the counts for the tissue×100/total injected dose. The % ID/g was calculated as the % ID/tissue weight. The average and standard deviation of the % ID and % ID/g was determined using normal methods (n-1) for each set of mice.
Tissue samples were collected for additional ex vivo biodistribution studies to confirm the PET data results.

What is called tissue uptake is the share of the injected amount in each gram of the tissue.

Non-standard residues stand in square brackets, D forms with d. Residues, ends and D or L forms follow the SMILES beside them. *: point of attachment. X1 = CC(=O)N(O)CCCCCNC(=O)CCC(=O)N(O)CCCCCNC(=O)CCC(=O)N(O)CCCCCNC(=O)CCN1C(=O)CC(*)C1=O

As for `CC(=O)N(O)CCCCCNC(=O)CCC(=O)N(O)CCCCCNC(=O)CCC(=O)N(O)CCCCCNC(=O)CCN1C(=O)CC(SC[C@@H](NC(=O)[C@@H](C)N)C(=O)N[C@H](CC(=O)O)C(=O)N[C@H](CC(=O)O)C(=O)N[C@H](CCC(N)=O)C(=O)N[C@H](CC(N)=O)C(=O)N2CCC[C@@H]2C(=O)N[C@H](Cc2c[nH]c3ccccc23)C(=O)N[C@H](CCCNC(=N)N)C(=O)N[C@H](C)C(=O)N[C@H](Cc2ccc(O)cc2)C(=O)N[C@H](CC(C)C)C(=O)N[C@H](CC(=O)O)C(=O)N[C@H](CC(C)C)C(=O)N[C@H](CC(C)C)C(=O)N[C@H](Cc2ccccc2)C(=O)N2CCC[C@@H]2C(=O)N[C@@H](C(=O)N[C@H](CC(=O)O)C(=O)N[C@@H](C(=O)N[C@H](CC(C)C)C(=O)N[C@H](CC(C)C)C(=O)N[C@H](CC(C)C)C(=O)N[C@H](CC(=O)O)C(=O)N[C@H](CC(C)C)C(=O)N[C@H](CC(C)C)C(=O)N[C@H](Cc2c[nH]c3ccccc23)C(=O)O)[C@H](C)O)[C@H](C)O)C1=O` (stereo partly drawn) [[^89Zr]Zr-DFO-cys-Var3pHLIP, metal not drawn] (H-[dA][dC](X1)[dD][dD][dQ][dN][dP][dW][dR][dA][dY][dL][dD][dL][dL][dF][dP][dT][dD][dT][dL][dL][dL][dD][dL][dL][dW]-OH; N-terminus and C-terminus assumed), the tissue uptake in data set [1] is about 15 %ID/g. Further, the “time until which tumor uptake continues to increase” value in data set [2] is recorded as “approximately 48 h”. Moreover, in data set [2] (5 ug), the circulatory half-life entry is “long circulatory half-life”. In addition, the tissue uptake at 48 h was determined as 1.4 ± 0.1 %ID/g in data set [3] (Femur) and 0.6 ± 0.7 %ID/g in data set [3] (Muscle).
